Results from article doi:10.1101/2023.10.27.564484, “Insights into Molecular Diversity within the FET Family: Unraveling Phase Separation of the N-Terminal Low Complexity Domain from RNA-Binding Protein EWS” (bioRxiv, 2023).
Values belong to the molecule of their own block, whether it stands above or below them.

Legend:
EWS^LCD,13YS = EWS^LCD,13YS (UniProt Q01844); test: pelleting assay (phase separation); settings: 50 µM protein, 150 mM NaCl, 20 mM Tris pH 7.4; parent: est. 0.36; read off a plot
EWS^LCD,7YS = EWS^LCD,7YS (UniProt Q01844); test: pelleting assay (phase separation); settings: 50 µM protein, 150 mM NaCl, 20 mM Tris pH 7.4; parent: est. 0.36; read off a plot
[1] = target: the molecule itself; test: turbidity (phase separation) with brightfield imaging; stock diluted into 20 mM Tris buffer with varied protein, NaCl, pH or temperature in microwell plates; absorbance and brightfield images of droplets
[2] = target: the molecule itself; test: co-sedimentation; pelleting of condensates: stock in CAPS pH 11 diluted into 20 mM Tris pH 7.4-7.5, 150 mM NaCl, 18,000 g for 15 min at room temperature, A280 of the supernatant; protein 25-400 µM, mutants at 50 µM

- other: fraction soluble (EWS^LCD,13YS): 1
Molecule: EWS low-complexity domain (N-terminal 264 residues of RNA-binding protein EWS) (from UniProt Q01844) 13YS

- other: fraction soluble (EWS^LCD,7YS): 0.92
Molecule: EWS low-complexity domain (N-terminal 264 residues of RNA-binding protein EWS) (from UniProt Q01844) 7YS

B1: EWS low-complexity domain (N-terminal 264 residues of RNA-binding protein EWS) (domain or fragment)
chain: GAMASTDYSTYSQAAAQQGYSAYTAQPTQGYAQTTQAYGQQSYGTYGQPTDVSYTQAQTTATYGQTAYATSYGQPPTGYTTPTAPQAYSQPVQGYGTGAYDTTTATVTTTQASYAAQSAYGTQPAYPAYGQQPAATAPTRPQDGNKPTETSQPQSSTGGYNQPSLGYGQSNYSYPQVPGSYPMQPVTAPPSYPPTSYSSTQPTSYDQSSYSQQNTYGQPSSYGQQSSYGQQSSYGQQPPTSYPPQTGSYSQAPSQYSQQSSSYGQQ
notes: two residue (Gly, Ala) cloning scar left after TEV cleavage; not included in the numbering; 15N-enriched in the intermolecular PRE experiment; unlabelled in turbidity and pelleting assays; also called EWS^LCD; EWS LCD; source: E. coli BL21 DE3 Star, purified (IMAC in urea, TEV cleavage, second IMAC, SEC); not shown: His8, N-terminal, cleaved
- binding result [1]: binds

B2: EWS^LCD,Y170S/Y172S (domain or fragment)
chain: GAMASTDYSTYSQAAAQQGYSAYTAQPTQGYAQTTQAYGQQSYGTYGQPTDVSYTQAQTTATYGQTAYATSYGQPPTGYTTPTAPQAYSQPVQGYGTGAYDTTTATVTTTQASYAAQSAYGTQPAYPAYGQQPAATAPTRPQDGNKPTETSQPQSSTGGYNQPSLGYGQSNSSSPQVPGSYPMQPVTAPPSYPPTSYSSTQPTSYDQSSYSQQNTYGQPSSYGQQSSYGQQSSYGQQPPTSYPPQTGSYSQAPSQYSQQSSSYGQQ
notes: two residue (Gly, Ala) cloning scar left after TEV cleavage; not included in the numbering; also called Y170/Y172S; source: E. coli BL21 DE3 Star, purified (IMAC, TEV cleavage, SEC); not shown: His8, N-terminal, cleaved
- binding result [1]: binds

B3: EWS^LCD Y208S (domain or fragment)
chain: GAMASTDYSTYSQAAAQQGYSAYTAQPTQGYAQTTQAYGQQSYGTYGQPTDVSYTQAQTTATYGQTAYATSYGQPPTGYTTPTAPQAYSQPVQGYGTGAYDTTTATVTTTQASYAAQSAYGTQPAYPAYGQQPAATAPTRPQDGNKPTETSQPQSSTGGYNQPSLGYGQSNYSYPQVPGSYPMQPVTAPPSYPPTSYSSTQPTSYDQSSSSQQNTYGQPSSYGQQSSYGQQSSYGQQPPTSYPPQTGSYSQAPSQYSQQSSSYGQQ
notes: two residue (Gly, Ala) cloning scar left after TEV cleavage; not included in the numbering; source: E. coli BL21 DE3 Star, purified (IMAC, TEV cleavage, SEC); not shown: His8, N-terminal, cleaved
- binding result [2]: binds

B4: EWS^LCD Y44S (domain or fragment)
chain: GAMASTDYSTYSQAAAQQGYSAYTAQPTQGYAQTTQAYGQQSYGTSGQPTDVSYTQAQTTATYGQTAYATSYGQPPTGYTTPTAPQAYSQPVQGYGTGAYDTTTATVTTTQASYAAQSAYGTQPAYPAYGQQPAATAPTRPQDGNKPTETSQPQSSTGGYNQPSLGYGQSNYSYPQVPGSYPMQPVTAPPSYPPTSYSSTQPTSYDQSSYSQQNTYGQPSSYGQQSSYGQQSSYGQQPPTSYPPQTGSYSQAPSQYSQQSSSYGQQ
notes: as for B3
- binding result [2]: binds

B5: EWS^LCD Y172S (domain or fragment)
chain: GAMASTDYSTYSQAAAQQGYSAYTAQPTQGYAQTTQAYGQQSYGTYGQPTDVSYTQAQTTATYGQTAYATSYGQPPTGYTTPTAPQAYSQPVQGYGTGAYDTTTATVTTTQASYAAQSAYGTQPAYPAYGQQPAATAPTRPQDGNKPTETSQPQSSTGGYNQPSLGYGQSNYSSPQVPGSYPMQPVTAPPSYPPTSYSSTQPTSYDQSSYSQQNTYGQPSSYGQQSSYGQQSSYGQQPPTSYPPQTGSYSQAPSQYSQQSSSYGQQ
notes: as for B3
- binding result [2]: binds
